Where a chain is given by its changes, count along the chain named. Names may count otherwise.
B1: ClC-Kb C-terminal domain (domain or fragment, human, UniProt P51801 538-684, looked up)
chain: RNIGSHRVRVEHFMNHSITTLAKDMPLEEVVKVVTSTDVAKYPLVESTESQILVGIVRRAQLVQALKAEPPSWAPGHQQCLQDILAAGCPTEPVTLKLSPETSLHEAHNLFELLNLHSLFVTSRGRAVGCVSWVEMKKAISNLTNPP
notes: ClC-Kb chloride channel, human, C-terminal cytoplasmic domain, amino acids 538-684; read here as KbC following MBP; MBP was removed with Factor Xa and washed away on the cation-exchange column; also called ClC-Kb cytoplasmic domain; ClC-Kb C-terminal cytoplasmic domain; source: E. coli, purified (amylose column, Factor Xa digestion, cation exchange); not shown: MBP, N-terminal, cleaved
B2: ClC-Kb C-terminal domain double mutant K604C-A644C (domain or fragment, human, UniProt P51801 538-684, looked up)
chain: B1 chain with K67C, A107C
notes: ClC-Kb chloride channel, human, C-terminal cytoplasmic domain, amino acids 538-684, K604C and A644C; also called 604-644 cysteine double mutant; source: E. coli, purified (amylose column, Factor Xa digestion, cation exchange); not shown: MBP, N-terminal, cleaved
B3: ClC-Kb C-terminal domain double mutant L603C-H645C (domain or fragment, human, UniProt P51801 538-684, looked up)
chain: B1 chain with L66C, H108C
notes: ClC-Kb chloride channel, human, C-terminal cytoplasmic domain, amino acids 538-684, L603C and H645C; also called 603-645 cysteine double mutant; source: E. coli, purified (amylose column, Factor Xa digestion, cation exchange); not shown: MBP, N-terminal, cleaved
B4: ClC-Kb C-terminal domain with the L650C mutation (domain or fragment, human, UniProt P51801 538-684, looked up)
chain: B1 chain with L113C
notes: ClC-Kb chloride channel, human, C-terminal cytoplasmic domain, amino acids 538-684, L650C; also called ClC-Kb-L650C; L650C mutant; source: E. coli, purified (amylose column, Factor Xa digestion, cation exchange); not shown: MBP, N-terminal, cleaved

Assays:
[1] = target: the molecule itself; experiment: SEC-MALS; Shodex PROTEIN KW-802.5 column, 200 mM NaCl, 20 mM Tris-Cl pH 7.5, protein at 1 mg/mL, room temperature (23°C); self-association, dimer
[2] = target: the molecule itself; experiment: SEC-MALS; data not shown; 'monodispersed dimers, as observed with wild-type'; method taken from the wild-type experiment
[3] = target: the molecule itself; experiment: cross-linking; spontaneous disulfide cross-linking of introduced cysteines in purified KbC in TBS7.5 (200 mM NaCl, 10 mM Tris pH 7.5, 5 mM ß-mercaptoethanol); SDS-PAGE in reducing (250 mM ß-mercaptoethanol) and oxidizing conditions

Protein	stoichiometry N [2]	other results
B1		stoichiometry N [1]: 2
B2	2	
B3	2	
B4		binding result [3]: binds
